Experimental data as given in patent US20250043028A1 (Hoffmann-La Roche, published 2025).
Numbering of substitutions follows the chain as printed.

What was measured:
[1] = molecular target: T1, human MCSP expressed on tumor cells (Colo-38, WM266-4, MV-3) (human, UniProt Q6UVK1 30-2322); experiment: cell-based or functional assay
[2] = molecular target: T1, human MCSP expressed on tumor cells …; experiment: cell-based or functional assay; remark: listed apart in the source
[3] = molecular target: T2, human CD3 expressed on Jurkat cells (human, UniProt P07766 23-207); experiment: flow cytometry on Jurkat cells
T2 construct: CD3 as part of the T cell receptor complex on Jurkat cells; also called huCD3; human CD3 on cells
T2 sequence (P07766 23-207 limits assumed): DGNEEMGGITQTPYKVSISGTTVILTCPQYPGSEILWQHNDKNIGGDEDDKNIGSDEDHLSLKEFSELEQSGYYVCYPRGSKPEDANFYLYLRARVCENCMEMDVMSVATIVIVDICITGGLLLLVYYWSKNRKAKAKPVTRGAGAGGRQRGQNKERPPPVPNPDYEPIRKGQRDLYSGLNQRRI

[4] = molecular target: T1, human MCSP expressed on tumor cells …; experiment: flow cytometry on WM266-4 cells
[5] = molecular target: T1, human MCSP expressed on tumor cells …; experiment: FACS on Colo-38 cells, dose titration
Experimental: Binding of the different bispecific constructs to CD3 on Jurkat cells (ATCC #TIB-152), and the respective tumor antigen on target cells, was determined by FACS. Briefly, cells were harvested, counted and checked for viability. 0.15-0.2 million cells per well (in PBS containing 0.1% BSA; 90 μl) were plated in a round-bottom 96-well plate and incubated with the indicated concentration of the bispecific constructs and corresponding IgG controls (10 μl) for 30 min at 4° C. For a better comparison, all constructs and IgG controls were normalized to same molarity. […] Bound constructs were detected using a FACSCantoII (Software FACS Diva). The “(scFv)₂” molecule was detected using a FITC-conjugated anti-His antibody (Lucerna, #RHIS-45F-Z). […] Unless otherwise indicated, cells were fixed with 100 μl/well fixation buffer (BD #554655) for 15 min at 4° C. in the dark, centrifuged for 6 min at 400×g and kept in 200 μl/well PBS containing 0.1% BSA until the samples were measured with FACS CantoII. EC50 values were calculated using the GraphPad Prism software.
In another experiment, the purified “2+1 IgG scFab” bispecific construct (SEQ ID NOs 5, 17, 19) and the corresponding anti human MCSP IgG were analyzed by flow cytometry for dose-dependent binding to human MCSP on Colo-38 human melanoma cells, to determine whether the bispecific construct binds to MCSP via one or both of its “arms”.

HuFcγRIIIa-V158-K6H6 = molecular target: T3, HuFcγRIIIa-V158-K6H6 (human, UniProt P08637 17-208); experiment: SPR Biacore T100, 25 °C, kinetic fit, one concentration (1000 nM); receptor captured via anti-Penta His
T3 construct: Captured on an anti-Penta His antibody on a CM5 chip; also called human FcγRIIIa-V158; human FcγRIIIa; not shown: K6H6 tag
T3 sequence (P08637 17-208 F176V): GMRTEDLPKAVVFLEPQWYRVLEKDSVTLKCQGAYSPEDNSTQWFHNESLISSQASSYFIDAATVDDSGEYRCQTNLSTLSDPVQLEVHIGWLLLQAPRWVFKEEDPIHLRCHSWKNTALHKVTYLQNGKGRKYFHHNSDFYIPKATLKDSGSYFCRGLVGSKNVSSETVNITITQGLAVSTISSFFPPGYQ
Experimental: For analyzing interaction of different Fc-variants with human FcγRIIIa-V158 and murine FcγRIV direct coupling of around 6,500 resonance units (RU) of the anti-Penta His antibody (Qiagen) is performed on a CM5 chip at pH 5.0 using the standard amine coupling kit (Biacore, Freiburg/Germany). HuFcγRIIIa-V158-K6H6 and muFcγRIV-aviHis-biotin are captured for 60 s at 4 and 10 nM respectively.
Constructs with different Fc-mutations are passed through the flow cells for 120 s at a concentration of 1000 nM with a flow rate of 30 μl/min. The dissociation is monitored for 220 s. Bulk refractive index differences are corrected for by subtracting the response obtained in a reference flow cell. Here, the Fc-variants are flown over a surface with immobilized anti-Penta His antibody but on which HBS-EP has been injected rather than HuFcγRIIIa-V158-K6H6 or muFcγRIV-aviHis-biotin. Affinity for human FcγRIIIa-V158 and murine FcγRIV was determined for wild-type Fc using a concentration range from 500-4000 nM.
The steady state response was used to derive the dissociation constant KD by non-linear curve fitting of the Langmuir binding isotherm. Kinetic constants were derived using the Biacore T100 Evaluation Software (vAA, Biacore AB, Uppsala/Sweden), to fit rate equations for 1:1 Langmuir binding by numerical integration.

T1 sequence (Q6UVK1 30-2322): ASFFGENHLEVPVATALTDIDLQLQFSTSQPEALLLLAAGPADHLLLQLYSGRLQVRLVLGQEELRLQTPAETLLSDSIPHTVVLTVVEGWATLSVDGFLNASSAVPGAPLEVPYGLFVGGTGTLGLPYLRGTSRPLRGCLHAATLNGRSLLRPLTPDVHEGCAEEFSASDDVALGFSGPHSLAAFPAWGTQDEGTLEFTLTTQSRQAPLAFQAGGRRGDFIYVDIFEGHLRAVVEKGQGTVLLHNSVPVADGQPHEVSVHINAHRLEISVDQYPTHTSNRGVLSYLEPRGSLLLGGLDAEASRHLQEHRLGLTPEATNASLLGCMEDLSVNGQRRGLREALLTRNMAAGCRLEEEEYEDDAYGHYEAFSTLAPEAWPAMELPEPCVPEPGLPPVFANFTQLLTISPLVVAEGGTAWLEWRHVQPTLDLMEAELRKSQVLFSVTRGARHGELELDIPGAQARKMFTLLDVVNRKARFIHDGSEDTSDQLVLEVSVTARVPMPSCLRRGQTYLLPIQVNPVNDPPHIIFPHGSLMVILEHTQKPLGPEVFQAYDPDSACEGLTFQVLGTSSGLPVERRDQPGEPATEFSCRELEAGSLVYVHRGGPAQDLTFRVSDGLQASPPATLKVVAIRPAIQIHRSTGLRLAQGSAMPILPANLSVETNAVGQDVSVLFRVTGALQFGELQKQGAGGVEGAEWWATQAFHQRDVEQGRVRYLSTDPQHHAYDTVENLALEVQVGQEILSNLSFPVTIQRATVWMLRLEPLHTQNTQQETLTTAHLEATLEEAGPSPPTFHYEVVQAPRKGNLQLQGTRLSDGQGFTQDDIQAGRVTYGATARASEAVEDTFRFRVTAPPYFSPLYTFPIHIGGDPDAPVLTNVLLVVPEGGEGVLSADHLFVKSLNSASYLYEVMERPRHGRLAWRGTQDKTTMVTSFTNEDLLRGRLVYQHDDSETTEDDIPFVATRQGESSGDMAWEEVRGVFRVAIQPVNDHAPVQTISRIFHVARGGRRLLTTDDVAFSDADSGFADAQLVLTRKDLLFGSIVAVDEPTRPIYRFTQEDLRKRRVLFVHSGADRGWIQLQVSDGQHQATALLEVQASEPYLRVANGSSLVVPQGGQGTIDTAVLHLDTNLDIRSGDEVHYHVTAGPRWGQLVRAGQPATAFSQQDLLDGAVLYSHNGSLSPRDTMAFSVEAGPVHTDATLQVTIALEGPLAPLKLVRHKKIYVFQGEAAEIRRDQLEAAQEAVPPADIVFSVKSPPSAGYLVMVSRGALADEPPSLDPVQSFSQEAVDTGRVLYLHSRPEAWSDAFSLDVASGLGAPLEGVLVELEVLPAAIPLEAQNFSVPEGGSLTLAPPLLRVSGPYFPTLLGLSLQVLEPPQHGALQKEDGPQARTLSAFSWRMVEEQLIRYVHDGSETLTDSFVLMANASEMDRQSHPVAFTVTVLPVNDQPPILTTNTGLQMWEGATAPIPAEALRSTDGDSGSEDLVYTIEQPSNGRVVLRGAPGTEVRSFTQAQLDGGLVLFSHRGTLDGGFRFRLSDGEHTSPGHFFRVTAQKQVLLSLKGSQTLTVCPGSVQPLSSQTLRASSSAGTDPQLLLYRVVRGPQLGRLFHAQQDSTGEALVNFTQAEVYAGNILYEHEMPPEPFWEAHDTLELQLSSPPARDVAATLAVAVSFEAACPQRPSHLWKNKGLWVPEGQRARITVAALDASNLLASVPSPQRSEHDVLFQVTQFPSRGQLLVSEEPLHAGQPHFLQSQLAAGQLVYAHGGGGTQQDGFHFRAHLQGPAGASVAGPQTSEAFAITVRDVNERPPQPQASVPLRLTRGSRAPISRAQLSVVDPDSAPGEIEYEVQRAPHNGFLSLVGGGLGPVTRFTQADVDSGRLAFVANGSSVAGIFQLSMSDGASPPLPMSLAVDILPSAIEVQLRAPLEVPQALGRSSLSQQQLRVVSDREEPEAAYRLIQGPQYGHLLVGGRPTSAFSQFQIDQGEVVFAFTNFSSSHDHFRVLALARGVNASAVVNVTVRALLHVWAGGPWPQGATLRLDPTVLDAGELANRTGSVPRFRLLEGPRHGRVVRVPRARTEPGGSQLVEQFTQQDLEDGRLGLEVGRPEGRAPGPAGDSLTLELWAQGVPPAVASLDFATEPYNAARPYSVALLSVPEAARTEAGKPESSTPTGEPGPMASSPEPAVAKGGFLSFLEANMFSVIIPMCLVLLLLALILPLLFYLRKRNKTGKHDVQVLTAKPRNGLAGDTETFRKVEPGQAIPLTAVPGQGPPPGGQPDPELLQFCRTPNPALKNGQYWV

B1: “2+1 IgG Crossfab”; VH/VL exchange (LC007/V9) (anti-MCSP/anti-huCD3) (bispecific antibody)
chain 1: not shown
chain 2: DIVLTQSPSSLSASLGDRVTISCSASQGIRNYLNWYQQRPDGTVKLLIYYTSSLHSGVPSRFSGSGSGTDYSLTISNLEPEDIATYYCQQYSKLPWTFGGGTKLEIKRTVAAPSVFIFPPSDEQLKSGTASVVCLLNNFYPREAKVQWKVDNALQSGNSQESVTEQDSKDSTYSLSSTLTLSKADYEKHKVYACEVTHQGLSSPVTKSFNRGEC
chain 3: DIQMTQSPSSLSASVGDRVTITCRASQDIRNYLNWYQQKPGKAPKLLIYYTSRLESGVPSRFSGSGSGTDYTLTISSLQPEDFATYYCQQGNTLPWTFGQGTKVEIKSSASTKGPSVFPLAPSSKSTSGGTAALGCLVKDYFPEPVTVSWNSGALTSGVHTFPAVLQSSGLYSLSSVVTVPSSSLGTQTYICNVNHKPSNTKVDKKVEPKSCGGGGSGGGGSEVQLQESGPGLVKPSQSLSLTCSVTGYSITSGYYWNWIRQFPGNKLEWMGYITYDGSNNYNPSLKNRISITRDTSKNQFFLKLNSVTTEDTATYYCADFDYWGQGTTLTVSSASTKGPSVFPLAPSSKSTSGGTAALGCLVKDYFPEPVTVSWNSGALTSGVHTFPAVLQSSGLYSLSSVVTVPSSSLGTQTYICNVNHKPSNTKVDKKVEPKSCDKTHTCPPCPAPEAAGGPSVFLFPPKPKDTLMISRTPEVTCVVVDVSHEDPEVKFNWYVDGVEVHNAKTKPREEQYNSTYRVVSVLTVLHQDWLNGKEYKCKVSNKALGAPIEKTISKAKGQPREPQVCTLPPSRDELTKNQVSLSCAVKGFYPSDIAVEWESNGQPENNYKTTPPVLDSDGSFFLVSKLTVDKSRWQQGNVFSCSVMHEALHNHYTQKSLSLSPGK
chain 4: EVQLVESGGGLVQPGGSLRLSCAASGYSFTGYTMNWVRQAPGKGLEWVALINPYKGVSTYNQKFKDRFTISVDKSKNTAYLQMNSLRAEDTAVYYCARSGYYGDSDWYFDVWGQGTLVTVSSASVAAPSVFIFPPSDEQLKSGTASVVCLLNNFYPREAKVQWKVDNALQSGNSQESVTEQDSKDSTYSLSSTLTLSKADYEKHKVYACEVTHQGLSSPVTKSFNRGEC
notes: vectors transfected 1:2:1:1 (second heavy chain : light chain : first heavy chain-heavy chain Crossfab : light chain Crossfab); also called 2+1 IgG Crossfab (V9)
EC50 of killing (LDH release) of MV-3 cells, human PBMCs, E:T 10:1, 21 h [1]: 0.0092 nM
EC50 of killing (LDH release) of WM266-4 cells, human PBMCs, E:T 10:1, 21 h [1]: 0.0331 nM
EC50 [pM] of T cell-mediated killing (LDH release) of MV-3 cells, human PBMCs, E:T 10:1, about 24 h [2]: 10 pM
EC50 [pM] of T cell-mediated killing (LDH release) of WM266-4 cells, human PBMCs, E:T 10:1, about 24 h [2]: 12.4 pM
EC50 [3]: 1.66 nM
EC50 [4]: 0.95 nM

B2: “2+1 IgG Crossfab, inverted”; CL/CH1 exchange (LC007/anti-CD3) (anti-MCSP/anti-huCD3) (bispecific antibody)
chain 1: B1 chain 2
chain 2: EVQLQESGPGLVKPSQSLSLTCSVTGYSITSGYYWNWIRQFPGNKLEWMGYITYDGSNNYNPSLKNRISITRDTSKNQFFLKLNSVTTEDTATYYCADFDYWGQGTTLTVSSASTKGPSVFPLAPSSKSTSGGTAALGCLVKDYFPEPVTVSWNSGALTSGVHTFPAVLQSSGLYSLSSVVTVPSSSLGTQTYICNVNHKPSNTKVDKKVEPKSCDKTHTCPPCPAPEAAGGPSVFLFPPKPKDTLMISRTPEVTCVVVDVSHEDPEVKFNWYVDGVEVHNAKTKPREEQYNSTYRVVSVLTVLHQDWLNGKEYKCKVSNKALGAPIEKTISKAKGQPREPQVCTLPPSRDELTKNQVSLSCAVKGFYPSDIAVEWESNGQPENNYKTTPPVLDSDGSFFLVSKLTVDKSRWQQGNVFSCSVMHEALHNHYTQKSLSLSPGK
chain 3: QAVVTQESALTTSPGETVTLTCRSSTGAVTTSNYANWVQEKPDHLFTGLIGGTNKRAPGVPARFSGSLIGDKAALTITGAQTEDEAIYFCALWYSNLWVFGGGTKLTVLSSASTKGPSVFPLAPSSKSTSGGTAALGCLVKDYFPEPVTVSWNSGALTSGVHTFPAVLQSSGLYSLSSVVTVPSSSLGTQTYICNVNHKPSNTKVDKKVEPKSC
chain 4: not shown
EC50 [pM] of T cell-mediated killing (LDH release) of MV-3 cells, human PBMCs, E:T 10:1, about 24 h [2]: 3 pM
EC50 [pM] of T cell-mediated killing (LDH release) of WM266-4 cells, human PBMCs, E:T 10:1, about 24 h [2]: 7.1 pM
EC50 [3]: 32 nM
EC50 [4]: 3.4 nM

B3: “2+1 IgG Crossfab, inverted”; CL/CH1 exchange (LC007/V9) (anti-MCSP/anti-huCD3) (bispecific antibody)
chain 1: B1 chain 2
chain 2: B2 chain 2
chain 3: DIQMTQSPSSLSASVGDRVTITCRASQDIRNYLNWYQQKPGKAPKLLIYYTSRLESGVPSRFSGSGSGTDYTLTISSLQPEDFATYYCQQGNTLPWTFGQGTKVEIKSSASTKGPSVFPLAPSSKSTSGGTAALGCLVKDYFPEPVTVSWNSGALTSGVHTFPAVLQSSGLYSLSSVVTVPSSSLGTQTYICNVNHKPSNTKVDKKVEPKSC
chain 4: not shown
EC50 [pM] of T cell-mediated killing (LDH release) of MV-3 cells, human PBMCs, E:T 10:1, about 24 h [2]: 4.1 pM
EC50 [pM] of T cell-mediated killing (LDH release) of WM266-4 cells, human PBMCs, E:T 10:1, about 24 h [2]: 3.7 pM
EC50 [3]: 6.1 nM
EC50 [4]: 0.57 nM

B4: “2+1 IgG Crossfab”; CL/CH1 exchange (LC007/anti-CD3) (anti-MCSP/anti-huCD3) (bispecific antibody)
chain 1: B1 chain 2
chain 2: B2 chain 2
chain 3: B2 chain 3
chain 4: not shown
EC50 [pM] of T cell-mediated killing (LDH release) of MV-3 cells, human PBMCs, E:T 10:1, about 24 h [2]: 11 pM
EC50 [pM] of T cell-mediated killing (LDH release) of WM266-4 cells, human PBMCs, E:T 10:1, about 24 h [2]: 11.3 pM
EC50 [3]: 10.3 nM
EC50 [4]: 3.1 nM

B5: “2+1 IgG scFab, LALA” (anti-MCSP/anti-huCD3) (bispecific antibody)
chain 1: B1 chain 2
chain 2: not shown
chain 3: B2 chain 2 with G324P
notes: also called Fc-LALA; copies: 2 + 1 + 1
EC50 (read off the curve) [5]: ~0.06 nM
Kd (HuFcγRIIIa-V158-K6H6): 2130 nM
